Results on 7 molecules are retold here after publication PMC5907806 (Nature, 2017).

Positions count from the first letter of the chain named. Where two headings read alike, the source gives them in different places.

The target of data set [1] is Rpb2 subunit of S. cerevisiae RNA polymerase II (S. cerevisiae, UniProt P08518 1-1224). Put plainly: cryo-EM structure.
Data set [2] addresses T1, RNA polymerase II (12-subunit);Rad26 (Saccharomyces cerevisiae;Saccharomyces …, UniProt P04050;P08518;P16370;P20433;P20434;P20435;P34087;P20436;P27999;P22139;P38902;P40 …, |). Put plainly: EMSA. A general note: In EMSA bound probe runs differently from free probe, usually more slowly.
The target in data set [3] is T1, RNA polymerase II (12-subunit);Rad26. Nature of the data set: EMSA. The source holds these as a separate data set.
For data set [4] the target is unchanged. Nature of the data set: EMSA. The source holds these as a separate data set.
The target is the same in data set [5]. Put plainly: EMSA. The source holds these as a separate data set.
The target is the same in data set [6]. Nature of the data set: EMSA. This is another data set of the same source.
For data set [7] the target is unchanged. Put plainly: EMSA. The source holds these as a separate data set.

Rpb2 subunit of S. cerevisiae RNA polymerase II, sequence (P08518 whole entry): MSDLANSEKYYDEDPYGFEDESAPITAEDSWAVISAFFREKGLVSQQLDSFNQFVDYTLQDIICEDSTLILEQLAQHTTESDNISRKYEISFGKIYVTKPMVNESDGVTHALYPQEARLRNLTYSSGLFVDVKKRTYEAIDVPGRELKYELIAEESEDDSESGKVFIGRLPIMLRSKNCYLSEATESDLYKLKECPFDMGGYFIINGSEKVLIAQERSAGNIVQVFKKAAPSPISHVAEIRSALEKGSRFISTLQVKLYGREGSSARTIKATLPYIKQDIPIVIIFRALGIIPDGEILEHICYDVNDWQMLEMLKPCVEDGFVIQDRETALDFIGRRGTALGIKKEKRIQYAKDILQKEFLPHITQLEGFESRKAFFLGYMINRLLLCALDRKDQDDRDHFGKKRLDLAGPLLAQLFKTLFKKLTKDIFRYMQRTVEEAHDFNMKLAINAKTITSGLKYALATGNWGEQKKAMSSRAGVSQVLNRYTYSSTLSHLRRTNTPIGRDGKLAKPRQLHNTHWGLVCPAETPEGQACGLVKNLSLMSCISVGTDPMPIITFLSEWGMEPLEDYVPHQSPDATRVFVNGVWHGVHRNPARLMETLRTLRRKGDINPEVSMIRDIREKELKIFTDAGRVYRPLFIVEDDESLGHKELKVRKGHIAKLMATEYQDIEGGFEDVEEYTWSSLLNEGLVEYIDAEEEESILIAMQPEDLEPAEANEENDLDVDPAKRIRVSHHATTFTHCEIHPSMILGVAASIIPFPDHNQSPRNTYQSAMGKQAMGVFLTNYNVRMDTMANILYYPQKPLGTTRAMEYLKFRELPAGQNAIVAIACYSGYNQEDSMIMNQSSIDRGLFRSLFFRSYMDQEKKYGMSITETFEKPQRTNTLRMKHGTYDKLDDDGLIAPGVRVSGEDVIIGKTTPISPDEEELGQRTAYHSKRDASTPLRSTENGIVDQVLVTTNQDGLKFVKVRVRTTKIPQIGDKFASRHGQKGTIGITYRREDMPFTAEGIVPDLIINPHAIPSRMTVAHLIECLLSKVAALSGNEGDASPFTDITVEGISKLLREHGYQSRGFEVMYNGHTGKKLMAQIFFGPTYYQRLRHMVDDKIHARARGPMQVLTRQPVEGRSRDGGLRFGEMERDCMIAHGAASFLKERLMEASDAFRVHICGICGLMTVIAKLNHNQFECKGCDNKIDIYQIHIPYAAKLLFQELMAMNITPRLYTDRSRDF

B1: Saccharomyces cerevisiae Rad26 (natural protein, S. cerevisiae, UniProt P40352 1-1085, looked up)
chain: MEDKEQQDNAKLENNESLKDLGVNVLSQSSLEEKIANDVTNFSNLQSLQQEETRLERSKTALQRYVNKKNHLTRKLNNTTRISVKQNLRDQIKNLQSDDIERVLKDIDDIQSRIKELKEQVDQGAENKGSKEGLQRPGETEKEFLIRTGKITAFGHKAGFSLDTANREYAKNDEQKDEDFEMATEQMVENLTDEDDNLSDQDYQMSGKESEDDEEEENDDKILKELEDLRFRGQPGEAKDDGDELYYQERLKKWVKQRSCGSQRSSDLPEWRRPHPNIPDAKLNSQFKIPGEIYSLLFNYQKTCVQWLYELYQQNCGGIIGDEMGLGKTIQVIAFIAALHHSGLLTGPVLIVCPATVMKQWCNEFQHWWPPLRTVILHSMGSGMASDQKFKMDENDLENLIMNSKPSDFSYEDWKNSTRTKKALESSYHLDKLIDKVVTDGHILITTYVGLRIHSDKLLKVKWQYAVLDEGHKIRNPDSEISLTCKKLKTHNRIILSGTPIQNNLTELWSLFDFIFPGKLGTLPVFQQQFVIPINIGGYANATNIQVQTGYKCAVALRDLISPYLLRRVKADVAKDLPQKKEMVLFCKLTKYQRSKYLEFLHSSDLNQIQNGKRNVLFGIDILRKICNHPDLLDRDTKRHNPDYGDPKRSGKMQVVKQLLLLWHKQGYKALLFTQSRQMLDILEEFISTKDPDLSHLNYLRMDGTTNIKGRQSLVDRFNNESFDVFLLTTRVGGLGVNLTGANRIIIFDPDWNPSTDMQARERAWRIGQKREVSIYRLMVGGSIEEKIYHRQIFKQFLTNRILTDPKQKRFFKIHELHDLFSLGGENGYSTEELNEEVQKHTENLKNSKSEESDDFEQLVNLSGVSKLESFYNGKEKKENSKTEDDRLIEGLLGGESNLETVMSHDSVVNSHAGSSSSNIITKEASRVAIEAVNALRKSRKKITKQYEIGTPTWTGRFGKAGKIRKRDPLKNKLTGSAAILGNITKSQKEASKEARQENYDDGITFARSKEINSNTKTLENIRAYLQKQNNFFSSSVSILNSIGVSLSDKEDVIKVRALLKTIAQFDKERKGWVLDEEFRNNNAS
Turning to B1, the binding result in data set [1] is on record as “binds”.

B2: non-damaged TT scaffold (mixed)
DNA 1: CGAGCAGATCTCATAGCCCATTCCTACTAAGGAGAAGGAGCAGAGCG
DNA 2: CGCTCTGCTCCTTCTCCTTTCCTCTCGATGGCTATGAGATCTGCTCG
RNA: AUCGAGAGGA
B2: the binding result in data set [2] is “binds”.

B3: 3+10+3 bubble scaffold (mixed)
DNA 1: B2 DNA 1 with G16T, C17T, C18T, A29C, G31T
DNA 2: B2 DNA 2 with T18C, T19A
RNA: AUCGAGAGGA
On to B3, for which, in data set [3], the binding result is “binds”.

B4: AT-rich upstream fork scaffold (mixed)
DNA 1: B2 DNA 1 with G16T, C17T, C18T, A29T, A30G
DNA 2: B2 DNA 2 with T18C, T19A, G30A, G31A, C32A
RNA: AUCGAGAGGA
On to B4, for which the binding result in data set [4] is on record as “binds”.

B5: 3+10 bubble scaffold (mixed)
DNA 1: B2 DNA 1 with G16T, C17T, C18T, A29T, A30G
DNA 2: B2 DNA 2 with T18C, T19A
RNA: AUCGAGAGGA
For the molecule B5, the binding result in data set [5] is listed as “binds”.

B6: 10+3 bubble scaffold (mixed)
DNA 1: B2 DNA 1 with A29C, G31T
DNA 2: B2 DNA 2 with T18C, T19A
RNA: AUCGAGAGGA
As for B6, the binding result in data set [6] is “binds”.

B7: CPD lesion scaffold (mixed)
DNA 1: B2 DNA 1
DNA 2: B2 DNA 2
RNA: AUCGAGAGGA
modifications: CPD at TT of TS (nt 18-19)
Take B7: the binding result in data set [7] is on record as “binds”.
